Measured values taken from IntAct's records for PubMed 29892012.

B1: Coiled-coil alpha-helical rod protein 1 (Homo sapiens), Q8TD31 (parent)
chain: MFPPSGSTGLIPPSHFQARPLSTLPRMAPTWLSDIPLVQPPGHQDVSERRLDTQRPQVTMWERDVSSDRQEPGRRGRSWGLEGSQALSQQAEVIVRQLQELRRLEEEVRLLRETSLQQKMRLEAQAMELEALARAEKAGRAEAEGLRAALAGAEVVRKNLEEGSQRELEEVQRLHQEQLSSLTQAHEEALSSLTSKAEGLEKSLSSLETRRAGEAKELAEAQREAELLRKQLSKTQEDLEAQVTLVENLRKYVGEQVPSEVHSQTWELERQKLLETMQHLQEDRDSLHATAELLQVRVQSLTHILALQEEELTRKVQPSDSLEPEFTRKCQSLLNRWREKVFALMVQLKAQELEHSDSVKQLKGQVASLQEKVTSQSQEQAILQRSLQDKAAEVEVERMGAKGLQLELSRAQEARRRWQQQTASAEEQLRLVVNAVSSSQIWLETTMAKVEGAAAQLPSLNNRLSYAVRKVHTIRGLIARKLALAQLRQESCPLPPPVTDVSLELQQLREERNRLDAELQLSARLIQQEVGRAREQGEAERQQLSKVAQQLEQELQQTQESLASLGLQLEVARQGQQESTEEAASLRQELTQQQELYGQALQEKVAEVETRLREQLSDTERRLNEARREHAKAVVSLRQIQRRAAQEKERSQELRRLQEEARKEEGQRLARRLQELERDKNLMLATLQQEGLLSRYKQQRLLTVLPSLLDKKKSVVSSPRPPECSASAPVAAAVPTRESIKGSLSVLLDDLQDLSEAISKEEAVCQGDNLDRCSSSNPQMSS

Variants of: B1
Settings: with nutm1_human NUTM1, Q86Y26

| Variant | effect of a mutation on the interaction |
| --- | --- |
| W337R | disrupting interaction strength |

Variants of: B1
Settings: with tekt1_human TEKT1, Q969V4

| Variant | effect of a mutation on the interaction |
| --- | --- |
| W337R | disrupting interaction strength |

Variants of: B1
Settings: with amol2_human AMOTL2, Q9Y2J4

| Variant | effect of a mutation on the interaction |
| --- | --- |
| W337R | disrupting interaction strength |

Variants of: B1
Settings: with k1h1_human KRT31, Q15323
Chain of k1h1_human KRT31, Q15323 (Q15323 whole entry): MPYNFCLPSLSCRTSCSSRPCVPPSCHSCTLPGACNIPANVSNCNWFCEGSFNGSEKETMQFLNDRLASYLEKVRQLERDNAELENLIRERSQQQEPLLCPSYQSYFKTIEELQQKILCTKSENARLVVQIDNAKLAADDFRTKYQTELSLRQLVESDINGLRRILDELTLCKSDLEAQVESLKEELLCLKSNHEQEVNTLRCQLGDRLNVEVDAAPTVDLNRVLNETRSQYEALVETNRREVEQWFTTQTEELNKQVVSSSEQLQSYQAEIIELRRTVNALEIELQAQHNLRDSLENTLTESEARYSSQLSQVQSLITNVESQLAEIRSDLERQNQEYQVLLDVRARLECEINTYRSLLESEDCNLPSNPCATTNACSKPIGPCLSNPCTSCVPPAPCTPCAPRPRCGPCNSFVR

| Variant | effect of a mutation on the interaction |
| --- | --- |
| W337R | with no effect |

Variants of: B1
Settings: with abi2_human ABI2, Q9NYB9
Chain of abi2_human ABI2, Q9NYB9 (Q9NYB9 whole entry): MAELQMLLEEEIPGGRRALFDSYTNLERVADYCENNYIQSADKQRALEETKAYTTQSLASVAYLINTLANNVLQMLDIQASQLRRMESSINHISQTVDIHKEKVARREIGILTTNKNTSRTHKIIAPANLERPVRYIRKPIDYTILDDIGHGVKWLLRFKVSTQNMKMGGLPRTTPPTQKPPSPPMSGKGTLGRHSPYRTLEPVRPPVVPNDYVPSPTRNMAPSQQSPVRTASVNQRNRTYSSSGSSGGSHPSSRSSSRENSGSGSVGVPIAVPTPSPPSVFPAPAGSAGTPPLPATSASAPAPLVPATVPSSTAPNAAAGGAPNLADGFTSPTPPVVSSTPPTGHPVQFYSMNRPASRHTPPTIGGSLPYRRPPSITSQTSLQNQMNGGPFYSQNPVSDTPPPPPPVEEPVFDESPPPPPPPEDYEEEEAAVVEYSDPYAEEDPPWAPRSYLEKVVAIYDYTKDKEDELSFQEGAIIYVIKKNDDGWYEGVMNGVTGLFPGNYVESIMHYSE

| Variant | effect of a mutation on the interaction |
| --- | --- |
| W337R | disrupting interaction strength |

Variants of: B1
Settings: with txlnb_human TXLNB

| Variant | effect of a mutation on the interaction |
| --- | --- |
| W337R | disrupting interaction strength |

Variants of: B1
Settings: with ndc80_human NDC80, O14777

| Variant | effect of a mutation on the interaction |
| --- | --- |
| W337R | disrupting interaction strength |

Variants of: B1
Settings: with tpm3_human TPM3, P06753
Chain of tpm3_human TPM3, P06753 (P06753 whole entry): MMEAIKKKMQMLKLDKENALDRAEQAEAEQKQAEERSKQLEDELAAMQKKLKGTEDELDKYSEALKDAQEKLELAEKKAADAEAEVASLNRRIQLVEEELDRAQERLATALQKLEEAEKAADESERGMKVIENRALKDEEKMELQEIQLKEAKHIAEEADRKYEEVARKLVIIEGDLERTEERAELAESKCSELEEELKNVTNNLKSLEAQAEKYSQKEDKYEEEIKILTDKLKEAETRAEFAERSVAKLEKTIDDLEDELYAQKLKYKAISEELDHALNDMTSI

| Variant | effect of a mutation on the interaction |
| --- | --- |
| W337R | disrupting interaction strength |

Variants of: B1
Settings: with KRT15, P19012
Chain of KRT15, P19012 (P19012 whole entry): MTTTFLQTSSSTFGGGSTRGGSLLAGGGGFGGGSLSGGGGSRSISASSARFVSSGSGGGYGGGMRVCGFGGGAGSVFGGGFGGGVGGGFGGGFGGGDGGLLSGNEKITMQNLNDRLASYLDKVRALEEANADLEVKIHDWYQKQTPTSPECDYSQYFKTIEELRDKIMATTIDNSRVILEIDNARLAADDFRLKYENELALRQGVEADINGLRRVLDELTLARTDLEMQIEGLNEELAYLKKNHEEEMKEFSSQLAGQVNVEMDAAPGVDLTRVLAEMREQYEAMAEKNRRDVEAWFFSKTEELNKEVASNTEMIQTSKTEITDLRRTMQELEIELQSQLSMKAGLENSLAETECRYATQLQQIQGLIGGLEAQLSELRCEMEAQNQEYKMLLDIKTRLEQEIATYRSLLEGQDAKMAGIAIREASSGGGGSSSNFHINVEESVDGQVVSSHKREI

| Variant | effect of a mutation on the interaction |
| --- | --- |
| W337R | with no effect |

Variants of: B1
Settings: with atg5_human ATG5, Q9H1Y0
Chain of atg5_human ATG5, Q9H1Y0 (Q9H1Y0 whole entry): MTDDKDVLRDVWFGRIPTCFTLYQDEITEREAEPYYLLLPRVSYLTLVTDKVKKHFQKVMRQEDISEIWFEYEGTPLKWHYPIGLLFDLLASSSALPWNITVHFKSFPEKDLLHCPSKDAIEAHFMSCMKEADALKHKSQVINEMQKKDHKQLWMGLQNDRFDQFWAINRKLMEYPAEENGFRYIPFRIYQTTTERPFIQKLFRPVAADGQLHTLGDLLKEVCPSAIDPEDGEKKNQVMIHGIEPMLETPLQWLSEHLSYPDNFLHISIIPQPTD

| Variant | effect of a mutation on the interaction |
| --- | --- |
| W337R | disrupting interaction strength |

Variants of: B1
Settings: with cc136_human CCDC136, Q96JN2
Chain of cc136_human CCDC136, Q96JN2 (Q96JN2 whole entry): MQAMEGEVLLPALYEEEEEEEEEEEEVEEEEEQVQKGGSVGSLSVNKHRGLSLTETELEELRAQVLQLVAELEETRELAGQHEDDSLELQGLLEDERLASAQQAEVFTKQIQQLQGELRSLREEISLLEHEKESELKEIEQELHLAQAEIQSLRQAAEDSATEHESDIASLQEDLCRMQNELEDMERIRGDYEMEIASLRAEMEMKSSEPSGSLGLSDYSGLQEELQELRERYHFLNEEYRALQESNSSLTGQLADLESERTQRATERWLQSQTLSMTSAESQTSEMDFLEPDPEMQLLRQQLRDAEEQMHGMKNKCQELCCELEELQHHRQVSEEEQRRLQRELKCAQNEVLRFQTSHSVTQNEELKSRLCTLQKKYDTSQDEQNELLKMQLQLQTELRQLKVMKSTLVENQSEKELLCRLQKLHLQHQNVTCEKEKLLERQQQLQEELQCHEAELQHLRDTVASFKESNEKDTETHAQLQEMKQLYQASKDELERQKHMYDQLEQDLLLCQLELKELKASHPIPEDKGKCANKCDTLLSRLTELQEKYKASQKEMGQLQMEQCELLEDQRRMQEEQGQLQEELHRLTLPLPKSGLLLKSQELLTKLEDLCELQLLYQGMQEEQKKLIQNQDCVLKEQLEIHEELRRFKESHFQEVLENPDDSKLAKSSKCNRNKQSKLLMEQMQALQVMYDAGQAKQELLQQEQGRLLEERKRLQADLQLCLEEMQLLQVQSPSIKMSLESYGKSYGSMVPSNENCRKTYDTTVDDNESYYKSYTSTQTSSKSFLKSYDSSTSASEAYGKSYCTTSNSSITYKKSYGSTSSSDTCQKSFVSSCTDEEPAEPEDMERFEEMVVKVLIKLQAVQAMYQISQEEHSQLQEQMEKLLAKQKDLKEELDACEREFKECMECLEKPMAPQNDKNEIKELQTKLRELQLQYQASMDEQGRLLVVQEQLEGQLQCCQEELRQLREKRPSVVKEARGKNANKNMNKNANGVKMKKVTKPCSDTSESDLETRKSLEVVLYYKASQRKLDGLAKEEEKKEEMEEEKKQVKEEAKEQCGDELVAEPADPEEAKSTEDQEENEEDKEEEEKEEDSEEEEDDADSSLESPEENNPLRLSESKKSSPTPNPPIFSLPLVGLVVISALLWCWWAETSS

| Variant | effect of a mutation on the interaction |
| --- | --- |
| W337R | with no effect |

Variants of: B1
Settings: with nup62_human NUP62, P37198

| Variant | effect of a mutation on the interaction |
| --- | --- |
| W337R | with no effect |

Variants of: B1
Settings: with tsg10_human TSGA10, Q9BZW7
Chain of tsg10_human TSGA10, Q9BZW7 (Q9BZW7 whole entry): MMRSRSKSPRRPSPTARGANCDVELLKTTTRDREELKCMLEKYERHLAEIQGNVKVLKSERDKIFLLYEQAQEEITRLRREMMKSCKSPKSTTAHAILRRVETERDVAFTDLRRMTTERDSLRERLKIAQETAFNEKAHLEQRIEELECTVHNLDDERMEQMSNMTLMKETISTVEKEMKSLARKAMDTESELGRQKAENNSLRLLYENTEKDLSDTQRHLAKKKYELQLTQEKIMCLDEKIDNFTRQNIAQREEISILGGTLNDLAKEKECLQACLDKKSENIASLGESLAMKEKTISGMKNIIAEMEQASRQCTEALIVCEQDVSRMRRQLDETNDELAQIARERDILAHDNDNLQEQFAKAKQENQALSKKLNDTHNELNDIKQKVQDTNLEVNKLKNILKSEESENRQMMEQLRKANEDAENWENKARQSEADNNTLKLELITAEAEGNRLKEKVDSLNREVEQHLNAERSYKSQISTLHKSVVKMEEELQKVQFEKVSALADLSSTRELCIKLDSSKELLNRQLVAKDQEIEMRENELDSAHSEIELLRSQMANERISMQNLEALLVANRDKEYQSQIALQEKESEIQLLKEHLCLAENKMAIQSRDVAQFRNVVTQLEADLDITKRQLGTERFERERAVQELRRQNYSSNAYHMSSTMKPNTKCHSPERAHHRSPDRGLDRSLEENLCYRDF

| Variant | effect of a mutation on the interaction |
| --- | --- |
| W337R | disrupting interaction strength |

Variants of: B1
Settings: with anchr_human ZFYVE19, Q96K21
Chain of anchr_human ZFYVE19, Q96K21 (Q96K21 whole entry): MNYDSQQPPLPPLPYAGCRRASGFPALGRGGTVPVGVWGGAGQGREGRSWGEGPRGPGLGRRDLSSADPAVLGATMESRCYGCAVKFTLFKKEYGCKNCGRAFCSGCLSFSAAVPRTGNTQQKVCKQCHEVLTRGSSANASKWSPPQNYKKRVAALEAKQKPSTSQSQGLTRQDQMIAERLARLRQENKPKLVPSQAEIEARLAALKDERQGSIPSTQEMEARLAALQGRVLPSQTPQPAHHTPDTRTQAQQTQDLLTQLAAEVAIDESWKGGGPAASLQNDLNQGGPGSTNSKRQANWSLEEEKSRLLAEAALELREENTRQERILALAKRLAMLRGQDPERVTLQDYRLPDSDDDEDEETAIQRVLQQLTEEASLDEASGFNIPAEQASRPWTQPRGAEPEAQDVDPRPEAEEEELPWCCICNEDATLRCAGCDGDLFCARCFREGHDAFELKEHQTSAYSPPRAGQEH

| Variant | effect of a mutation on the interaction |
| --- | --- |
| W337R | disrupting interaction strength |

Variants of: B1
Settings: with sat1_human SAT1, P21673
Chain of sat1_human SAT1, P21673 (P21673 whole entry): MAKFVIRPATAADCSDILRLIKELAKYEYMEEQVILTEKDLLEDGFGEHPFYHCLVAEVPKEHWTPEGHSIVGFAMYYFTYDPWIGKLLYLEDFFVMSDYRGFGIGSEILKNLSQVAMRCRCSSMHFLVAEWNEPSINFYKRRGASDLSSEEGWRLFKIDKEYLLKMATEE

| Variant | effect of a mutation on the interaction |
| --- | --- |
| W337R | disrupting interaction strength |

Variants of: B1
Settings: with ndk7_human NME7, Q9Y5B8
Chain of ndk7_human NME7, Q9Y5B8 (Q9Y5B8 whole entry): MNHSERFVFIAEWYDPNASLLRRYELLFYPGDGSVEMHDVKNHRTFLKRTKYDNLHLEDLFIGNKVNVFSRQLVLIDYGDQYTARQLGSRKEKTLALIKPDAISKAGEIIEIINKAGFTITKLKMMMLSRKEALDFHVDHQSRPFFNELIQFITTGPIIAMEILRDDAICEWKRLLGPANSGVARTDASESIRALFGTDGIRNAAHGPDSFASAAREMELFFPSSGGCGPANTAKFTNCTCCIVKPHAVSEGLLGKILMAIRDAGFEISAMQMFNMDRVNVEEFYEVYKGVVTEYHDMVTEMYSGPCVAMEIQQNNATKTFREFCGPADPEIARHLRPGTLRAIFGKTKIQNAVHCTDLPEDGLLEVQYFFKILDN

| Variant | effect of a mutation on the interaction |
| --- | --- |
| W337R | with no effect |

Variants of: B1
Settings: with txlna_human TXLNA

| Variant | effect of a mutation on the interaction |
| --- | --- |
| W337R | disrupting interaction strength |
